# In publication PMC3291655, “LEDGF/p75-Independent HIV-1 Replication Demonstrates a Role for HRP-2 and Remains Sensitive to Inhibition by LEDGINs” (PLoS Pathogens, 2012):
# T1: MBP-LEDGF/p75(325-530), maltose binding protein fusion of the C-terminal end of LEDGF/p75 (human, UniProt O75475-1 325-530)
# T1 construct: also called MBP-LEDGF_(325–530); LEDGF_(325–530); source: E. coli BL21(DE3), purified (amylose resin)
# T1 sequence (looked up): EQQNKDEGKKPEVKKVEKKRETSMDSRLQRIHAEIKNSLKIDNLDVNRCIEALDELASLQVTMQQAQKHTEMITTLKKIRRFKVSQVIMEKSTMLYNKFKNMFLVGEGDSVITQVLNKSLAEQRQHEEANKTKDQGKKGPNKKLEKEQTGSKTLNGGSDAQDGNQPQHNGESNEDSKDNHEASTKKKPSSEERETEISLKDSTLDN
# T2: MBP-HRP-2(448-670), maltose binding protein fusion of the C-terminal part of Hepatoma-derived growth factor … (human, UniProt Q7Z4V5-2 448-670)
# T2 construct: Hepatoma-derived growth factor related protein 2 (HRP-2), human, C-terminal part aa 448-670, which holds the IBD (aa 470-593); the range called the C-terminal end stops at 670, which fits the 670-residue isoform; amplified from p3xFlagHRP-2 and ligated into pMAL-c2E; source: E. coli, purified (amylose resin)
# T2 sequence (looked up): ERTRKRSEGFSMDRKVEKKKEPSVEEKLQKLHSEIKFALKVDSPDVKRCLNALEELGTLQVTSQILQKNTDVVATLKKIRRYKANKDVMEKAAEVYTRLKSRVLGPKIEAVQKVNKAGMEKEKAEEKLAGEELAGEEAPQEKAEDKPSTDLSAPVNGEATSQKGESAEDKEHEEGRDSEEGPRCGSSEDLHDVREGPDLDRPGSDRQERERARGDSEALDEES
# B1: HIV-1 integrase with a C-terminal His6 tag (enzyme)
# chain: FLDGIDKAQEEHEKYHSNWRAMASDFNLPPVVAKEIVASCDKCQLKGEAMHGQVDCSPGIWQLDCTHLEGKVILVAVHVASGYIEAEVIPAETGQETAYFLLKLAGRWPVKTVHTDNGSNFTSTTVKAACWWAGIKQEFGIPYNPQSQGVIESMNKELKKIIGQVRDQAEHLKTAVQMAVFIHNFKRKGGIGGYSAGERIVDIIATDIQTKELQKQITKIQNFRVYYRDSRDPVWKGPAKLLWKGEGAVVIQDNSDIKVVPRRKAKIIRDYGKQMAGDDCVASRQDED
# What was measured:
# [1] = target: T1, MBP-LEDGF/p75(325-530), maltose binding …; assay: AlphaScreen or HTRF; IN-His6 titrated (2-fold dilutions from 500 to 1.9 nM) against 10 nM MBP fusion; anti-MBP donor beads and Ni2+-chelate acceptor beads; 25 mM Tris-HCl pH 7.4, 150 mM NaCl, 1 mM MgCl2, 0.1% Tween-20, 0.1% BSA; 1 h at 4°C, then 1 h at RT with beads; apparent KD, one-site specific binding with ligand depletion; details: both partners purified
# [2] = target: T2, MBP-HRP-2(448-670), maltose binding …; assay: as above; details: both partners purified
binder,measurement,setting,value
B1,Kd,[1],6.6 nM
same,Kd,[2],89.8 nM
